Reference: patent US20200131227A1, “POLYPEPTIDE WITH TUMOUR BINDING ACTIVITY” (RUPRECHT-KARLS-UNIVERSITÄT HEIDELBERG, priority 2017, published 2020)
Where a SMILES comes first, the peptide text is derived from it. Bridges are numbered along the chain shown (N, C = ends). Where no end group is shown, it is not given here. The star is where a group is joined. DOTA = O=C(O)CN1CCN(CC(=O)O)CCN(CC(=O)*)CCN(CC(=O)O)CC1; 125I = iodine-125 label on tyrosine, [125I]*

Tests used:
[1] = Small-animal PET imaging, HNO223 xenografts; design: species or system mice; conditions: Balb/c nude, mouse, in vivo, iv, total radioactivity; 60 min after injection; read-out: SUVmean in tumor
[2] = Small-animal PET imaging, HNO97 xenografts; conditions: Balb/c nude, mouse, in vivo, iv, total radioactivity
Experimental: All experiments were conducted in compliance with the German animal protection laws. Eight week old Balb c/c nude mice (Charles River Laboratories) were inoculated subcutaneously at the right shoulder with 5×10^6 HNO97 cells in BD MatriGel™ (BD Bioscience). Xenografts were grown to a tumor diameter of 10-15 mm. For small animal-PET imaging mice were anesthetized using isoflurane inhalation and injected via tail-vein with 50 MBq (2 nmol) of the ^68Ga-labeled DOTA-SFITGv6 peptide (see above) solution in 100 μL PBS. Images were recorded on an Inveon small-animal PET scanner (Siemens) using a 60 min emission scan in list mode and a 10 min transmission scan. Images were taken in 3-dimensional (3D) mode and reconstructed iteratively with a fully 3D algorithm from a 256×256 matrix for viewing transaxial, coronal, and sagittal slices of 0.9 mm thickness. Pixel size was 0.38×0.38×0.79 mm3 and transaxial resolution obtained was 0.9 mm. For blocking experiments 100 μL of a 1 mM aqueous solution of SFITGv6 was pre-administered intraperitoneally 30 min before injection of the radiolabeled peptide. Biodistribution studies were performed after administration of 100 μL of a 20 nM ^177Lu-DOTA-SFITGv6 solution (1 MBq) as an intravenous bolus injection into the tail vein of the mice. After different time points (30 min to 6 hours) three animals, respectively, were sacrificed. Peripheral blood, heart, lung, spleen, liver, kidneys, muscle, brain, intestine, and injection site (tail, after intravenous injection only) were collected and weighted. Tissue-associated radioactivity was measured in a gamma counter (Berthold LB951G) and expressed as percentage of the injected dose per gram tissue (% ID/g).
All animal experiments were conducted in compliance with the German animal protection laws. For in vivo small animal PET imaging and organ distribution studies eight-week old Balb/c nude mice (Charles River Laboratories) were inoculated subcutaneously at the right shoulder with a total of 5×10^6 tumor cells in MatriGel (BD Bioscience). Xenografts were grown until a tumor diameter of 10-15 mm was reached.
3-dimensional (3D) PET images of whole mice were captured by the Siemens Inveon PET scanner as described in Example 1. To assess the biodistribution 100 μL of a 20 nM solution (1 MBq) of ^177Lu-DOTA-SFLAP3 and ^177Lu-DOTA-SFITGv6 were administered as an intravenous bolus injection into the tail vein of mice. For each time point (30 min to 6 hours) we sacrificed a total of three animals, and subsequently collected peripheral blood, heart, lung, spleen, liver, kidneys, muscle, brain, and intestine. Tissues were weighed and respective radioactivity was measured by a gamma counter (LB951G, Berthold Technologies). Values were expressed as percentage of the injected dose radioactivity (MBq) per gram tissue (% ID/g).

[3] = test system: metastasized pancreatic cancer; assay: PET/CT and scintigraphy of pancreatic cancer patient; assay type: in vivo, human; conditions: 1 and 3 hours after injection
Experimental: PET/CT scans of tumor patients and body scintigraphy were performed as described in Example 1.

[4] = Small-animal PET imaging, HNO399 xenografts; design: species or system mice; conditions: Balb/c nude, mouse, in vivo, iv, total radioactivity; 60 min after injection; read-out: SUVmean in tumor
[5] = PET/CT scan of HNSCC tumor patient with SFLAP3; assay type: in vivo, human; conditions: human, right cervical lesion, iv, 322 MBq, total radioactivity; read-out: SUVmax right cervical lesion
Excerpt: (§1) The emission data were corrected for randoms, scatter and decay. […] The quantitative assessment of tracer accumulation was done using a region of interest technique and using standardized uptake values (SUV).

HNSCC tumor = assay: PET/CT scan of HNSCC tumor patient with SFLAP3; assay type: in vivo, human
Excerpt: as §1

Capan-2 xenografts = assay: Small-animal PET imaging, Capan-2 xenografts; assay type: in vivo, mice; conditions: 25 MBq
Experimental: 6 to 8 week old Balb c/c nude mice (Charles River Lab.) were inoculated with 5*10^6 Capan-2 cells in 100 μl Opti-MEM medium. After 4 to 6 weeks the tumor has grown 10-15 mm in diameter. For small animal PET imaging 25 MBq of the ^68Ga-labeled peptide (2 nmol) was injected into the tail vein.

carcinoma cell lines = assay: In vitro binding of radiolabeled peptides to several carcinoma cell lines; assay type: cell-based, human; conditions: 10^−6 M competitor; all tested HNSCC cell lines
Experimental: For binding studies, 2.5×10^5 to 4×10^5 cells were seeded in 6-well plates and cultivated for 48 hours. Cells were incubated for 60 min with 1 mL serum-free medium containing the ^125I-labeled peptide (see above). For competition experiments, cells were simultaneously exposed to unlabeled (10^-4 M to 10^-10 M) and ^125I-labeled peptides. After three washing steps with PBS (pH 7.4) the cells were lysed with 0.5 mL of 0.3 M NaOH. Experiments concerning the internalization, kinetics and efflux were additionally performed with ^177Lu-DOTA-SFITGv6. To evaluate kinetics and efflux HNO97 cells were incubated for different time intervals (10 min to 480 min) and 60 min, respectively, with ^177Lu-DOTA-SFITGv6 and lysed as described. To continue with the efflux experiment radioactive medium was replaced by non-radioactive medium and cells were incubated again for 60 to 240 min before measuring radioactivity of the cell lysates and the medium. For internalization experiments the cells were exposed to ^177Lu-DOTA-SFITGv6 for different time intervals (10 to 240 min) at 37° C. and 4° C. After three washing steps with PBS the cells were incubated with 1 mL of glycine-HCl 50 mmol/L in PBS (pH 2.8) for 10 min at RT to remove the surface bound activity. Then, cells were washed with 3 mL of ice-cold PBS and lysed as described. Radioactivity was determined in a gamma counter and calculated as percentage of the applied dose per 1×10^6 cells. Experiments were performed three times, and three repetitions per independent experiment were acquired.
(§2) For the assessment of the peptide binding capacity in vitro, 2.5-4×10^5 cells were seeded into 6-well plates and cultivated for 48 h. ^125I-labeled peptide resuspended in 1 mL serum-free medium was added and incubated for either 10 min or 60 min with or without different concentrations of unlabeled peptide (10^−4-10^−11 M). Afterwards, cell monolayers were washed three times with 1 mL phosphate-buffered saline (pH 7.4) to remove unbound peptide and the cells were harvested with 1.4 mL lysis buffer (0.3 M NaOH). To evaluate kinetic properties the cells were exposed to ^177Lu-DOTA-labeled peptides for 10, 30, 60, 120, and 240 min, respectively, and lysed as described. For the efflux experiments the cells were incubated with ^177Lu-DOTA-labeled peptides for 60 min. Thereafter, radioactive medium was replaced by non-radioactive medium and cell monolayers were incubated for additional 60, 120, and 240 min and afterwards lysed as described earlier. The internalization was assessed after exposure of the cells to ^177Lu-DOTA-labeled peptides for 10, 30, 60, 120, and 240 min at 37° C. Unspecifically bound peptide was removed from the surface by incubation with 1 M glycine-HCl solution (pH 2.2) for 10 min. The monolayer cell was rinsed with PBS and cells were lysed as described before. Radioactivity was determined in a y-counter and calculated as percentage of the applied dose per 1×10^6 cells. Experiments were performed three times, and three repetitions per independent experiment were acquired.

Capan-2 cells = assay: In vitro binding, internalization and efflux on Capan-2 cells; assay type: cell-based, human; conditions: 60 min
Experimental: (§3) For in vitro binding Studies, 4*10^5-6*10^5 cells were seeded in 6 well plates and cultivated for 24 to 48 hours. At the start of the experiment the medium was replaced with 1 ml serum free medium with a definite amount of radioactive labeled peptide per well. For normal binding assays the cells were incubated for 60 min at 37° C. and afterwards washed 3 times with PBS (pH 7.4). Cells were lysed with 2 times 0.5 ml of a 0.3 M NaOH +0.2% SDS lysis-buffer. Competition assays were performed with ^125I-labeled and unlabelled (10^−6 to 10^−11M) peptide and incubated at the same time for 60 min.
Cells were incubated for 10 to 240 min with ^177Lu-labelled peptide in internalization assays. After the washing steps, the cells were incubated with 1 ml glycine-HCl (1 M, pH 2.2) buffer for 10 min to remove surface bound peptide. Prior to the lyses the cells were washed again. Values are given as percentage of applied dose per 10^6 cells.
The efflux was tested with ^177Lu-labeled peptides. After 60 min incubation the radioactive medium was removed and 1 ml fresh serum-free medium was added. After additional incubation of 60, 120 or 240 min, cell bound activity was measured.

HNO399 cells = assay: In vitro binding on HNO399 cells; assay type: cell-based, human; conditions: 60 min; percent applied dose/10^6 cells
Experimental: as §2, with “To evaluate kinetic properties the cells were exposed to ^177Lu-DOTA-labeled peptides for 10, 30, 60, 120, and 240 min, respectively, and lysed as described.” left out, “The internalization was assessed after exposure of the cells to ^177Lu-DOTA-labeled peptides for 10, 30, 60, 120, and 240 min at 37° C.” left out

OV433 and OV429 = assay: In vitro binding on ovarian cancer cell lines; assay type: cell-based, human; conditions: highest binding among tested ovarian cell lines
Experimental: as §3

CC(C)C[C@@H]1NC(=O)[C@H](CC(=O)O)NC(=O)CNC(=O)[C@H](CCCNC(=N)N)NC(=O)CNC(=O)[C@H]([C@@H](C)O)NC(=O)[C@@H](NC(=O)[C@H](CCCNC(=N)N)NC(=O)CNC(=O)CN2CCN(CC(=O)O)CCN(CC(=O)O)CCN(CC(=O)O)CC2)CSSC[C@@H](C(=O)N[C@@H](Cc2ccc(O)cc2)C(=O)N2CCC[C@H]2C(=O)N[C@@H](CC(=O)O)C(N)=O)NC(=O)[C@H](CC(C)C)NC(=O)[C@H](CCCNC(=N)N)NC(=O)CNC1=O [^68Ga-DOTA-SFLAP3, metal not drawn] ({DOTA}-GRCTGRGDLGRLCYPD-NH2; disulfide 3-13; N-terminus and C-terminus assumed)
SUV at 1 h [1]: 0.32 SUV
SUV at 1 h [2]: 0.63 SUV
PET/CT accumulation in tumor lesions [3]: high accumulation over 3 hours into the tumor lesions
SUV at 1 h [4]: 0.44 SUV
SUV [5]: 4.1 SUV
SUVmax Bight kidney (HNSCC tumor; 60 min): 22.43
SUVmax Blood pool (mediast.) (HNSCC tumor; 60 min): 0.99
SUVmax Cerebral parietal (HNSCC tumor; 60 min): 0.05
SUVmax Colon ascendens (HNSCC tumor; 60 min): 9.2
SUVmax Colon descendens (HNSCC tumor; 60 min): 3.75
SUVmax Duodenum (HNSCC tumor; 60 min): 6.31
SUVmax Hilar lymph nodes (HNSCC tumor; 60 min): 4.07
SUVmax Ileum (HNSCC tumor; 60 min): 4.07
SUVmax Jejunum (HNSCC tumor; 60 min): 10.46
SUVmax Kidney (left) (HNSCC tumor; 60 min): 60.52
SUVmax Liver (left) (HNSCC tumor; 60 min): 0.67
SUVmax Liver (right) (HNSCC tumor; 60 min): 0.73
SUVmax Lung (left) (HNSCC tumor; 60 min): 0.36
SUVmax Lung (right) (HNSCC tumor; 60 min): 0.33
SUVmax Muscle (glut.) (HNSCC tumor; 60 min): 1.94
SUVmax Os ileum (HNSCC tumor; 60 min): 0.53
SUVmax Pancreas head (HNSCC tumor; 60 min): 2.3
SUVmax Plexus choroideus (HNSCC tumor; 60 min): 1.06
SUVmax Spleen (HNSCC tumor; 60 min): 0.54
SUVmax Stomach (HNSCC tumor; 60 min): 12.65
SUVmax Thyroid (HNSCC tumor; 60 min): 3.27
SUVmax Tumor (HNSCC tumor; 60 min, listed as 68Ga-DOTA labeled SFLAP3): 5.07
SUVmax Tumor (HNSCC tumor; 60 min, listed as 68Ga-DOTA-labled SFLAP3): 5.1
SUVmax Bight kidney (HNSCC tumor; 180 min): 26.41
SUVmax Blood pool (mediast.) (HNSCC tumor; 180 min): 1.05
SUVmax Cerebral parietal (HNSCC tumor; 180 min): 0.27
SUVmax Colon ascendens (HNSCC tumor; 180 min): 19.37
SUVmax Colon descendens (HNSCC tumor; 180 min): 2.97
SUVmax Duodenum (HNSCC tumor; 180 min): 8.91
SUVmax Hilar lymph nodes (HNSCC tumor; 180 min): 4.15
SUVmax Ileum (HNSCC tumor; 180 min): 17.65
SUVmax Jejunum (HNSCC tumor; 180 min): 9.2
SUVmax Kidney (left) (HNSCC tumor; 180 min): 36.85
SUVmax Liver (left) (HNSCC tumor; 180 min): 0.76
SUVmax Liver (right) (HNSCC tumor; 180 min): 0.75
SUVmax Lung (left) (HNSCC tumor; 180 min): 0.46
SUVmax Lung (right) (HNSCC tumor; 180 min): 0.33
SUVmax Muscle (glut.) (HNSCC tumor; 180 min): 1.92
SUVmax Os ileum (HNSCC tumor; 180 min): 0.47
SUVmax Pancreas head (HNSCC tumor; 180 min): 2.62
SUVmax Plexus choroideus (HNSCC tumor; 180 min): 1.57
SUVmax Spleen (HNSCC tumor; 180 min): 0.8
SUVmax Thyroid (HNSCC tumor; 180 min): 3.24
SUVmax Tumor (HNSCC tumor; 180 min): 4.64
time p.i. at which tracer accumulation was seen in the tumor (Capan-2 xenografts): 20 min

^125I-SFLAP3: ^125I-labeled SFLAP3 (GRCTGRGDLGRLCY(125I)PD; disulfide 3-13)
competition of binding by non-radioactively labeled counterpart (carcinoma cell lines): almost completely competed
^125I-SFLAP3 binding value (Capan-2 cells): 14%
binding of ^125I-labeled peptide (HNO399 cells): 10.1%
binding of ^125I-SFLAP3 (OV433 and OV429): 5%
